Assay results reported in publication PMC11213948 (2024).

Molecular target: G5_(1–1508)-FLAG
Experiment: pull-down
Details: HEK293 cell lysates; western blot with anti-FLAG and anti-Xpress; n = 2; read off a plot

response (relative intensity (PD/In)): 1.3
Substance: Xpress-His G5_(1–1508) mutant A951E [not stated] / G5_(1–1508)-FLAG [not stated] chain 1 A951E
